Measurements published in patent US20200223889A1 (Novo Nordisk, published 2020).
Positions of bridges follow the written chain, without caps; N, C: chain ends. Non-standard residues stand in square brackets, D forms with d. Phe(3,4-(OMe)2) = COc1ccc(C[C@H](N)C(=O)O)cc1OC; Phe(3,4-Cl2) = N[C@@H](Cc1ccc(Cl)c(Cl)c1)C(=O)O; Phe(4-CN) = N#Cc1ccc(C[C@H](N)C(=O)O)cc1

How the values were obtained:
[1] = target: T1, human melanocortin 4 receptor (human, UniProt P32245 1-332); assay: competition with 125-NDP-α-MSH, BHK human MC4R membranes
T1 construct: whole, on cells; cAMP assay on whole BHK cells; also called MC4R; human MC4 receptor
Procedure: In order to assess the binding affinity of the selected compounds for the human MC4R competitive binding assays was performed with radiolabeled NDP-alpha MSH (¹²⁵NDP-α-MSH).
The assay was performed in 96-well filterplates (Unifilter) using BHK cells stably expressing the human MC4 receptor.
The BHK cell membranes were prepared from frozen or fresh cells that were homogenized in 20 mM HEPES pH 7.1, 5 mM MgCl₂, 1 mg/ml bacitracin (buffer 1) and centrifuged at 15000 rpm at 4° C., 10 min in a Sorvall RC 5B plus, SS-34 rotor. The supernatant was discarded, and the pellets were re-suspended in buffer 1, homogenized and centrifuged two more times. The final pellets were re-suspended in buffer 1 and the protein concentration was measured and adjusted with buffer 1 to 5 mg/ml and the membrane preparation was kept at −80° C. until assay. The assay was run on a dilution of this cell membrane suspension without any further preparation. The suspension was diluted to give maximally 10% specific binding, i.e. to approx. 50-100 fold dilution, optimized after each membrane preparation. The assay was performed in a total volume of 200 μl: 50 μl of cell suspension, 50 μl of ¹²⁵NDP-α-MSH (apx. […] in final concentration), 50 μl of test compound and 50 μl binding buffer were mixed and incubated for 2 h at 25° C. (binding buffer: 25 mM HEPES, pH 7.0, 1 mM CaCl₂), 1 mM MgSO₄, 1 mM EGTA, 0.005% Tween™ 20 and 0.1% HSA or, alternatively, 0.1% ovalbumin (Sigma; catalogue No. A-5503)). Test compounds were dissolved in 100% DMSO and diluted in binding buffer in a dose range from 1 μM to 0.001 nM. Radiolabelled ligand and membranes were diluted in binding buffer. The incubation was stopped by dilution with 8×100 μl ice-cold 0.9% NaCl. The radioactivity retained on the filters was counted using a Packard Topcounter. The data were analysed by non-linear regression analysis of binding curves, using the Windows™ program GraphPad™ Prism (GraphPad Software, USA).

[2] = target: human melanocortin 1 receptor (human, UniProt Q01726 1-317); assay: cell-based or functional assay
[3] = target: T1, human melanocortin 4 receptor; assay: cell-based or functional assay

Sequence of human melanocortin 1 receptor (Q01726 whole entry): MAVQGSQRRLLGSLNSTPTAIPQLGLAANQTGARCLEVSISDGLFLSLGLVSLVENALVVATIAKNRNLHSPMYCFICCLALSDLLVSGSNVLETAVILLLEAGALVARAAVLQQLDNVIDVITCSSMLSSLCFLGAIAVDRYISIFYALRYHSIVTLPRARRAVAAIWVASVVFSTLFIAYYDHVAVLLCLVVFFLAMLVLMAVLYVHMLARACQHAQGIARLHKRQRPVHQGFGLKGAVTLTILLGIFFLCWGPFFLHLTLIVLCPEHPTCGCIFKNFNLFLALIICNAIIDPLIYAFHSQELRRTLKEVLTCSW
T1 sequence (P32245 whole entry): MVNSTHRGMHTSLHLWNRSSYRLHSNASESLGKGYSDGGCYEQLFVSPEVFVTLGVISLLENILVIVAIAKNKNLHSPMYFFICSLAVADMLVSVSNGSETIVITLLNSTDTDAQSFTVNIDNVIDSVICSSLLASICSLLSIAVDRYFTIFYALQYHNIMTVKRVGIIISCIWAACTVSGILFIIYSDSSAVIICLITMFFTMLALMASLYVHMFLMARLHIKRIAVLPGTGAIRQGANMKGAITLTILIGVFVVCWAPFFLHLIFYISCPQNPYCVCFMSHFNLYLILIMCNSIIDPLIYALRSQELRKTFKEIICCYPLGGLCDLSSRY

B1: Chem. 65 (peptide)
peptide: cyclo(CAH[dF]R[Phe(4-CN)]CAKKKW)
modifications: disulfide 1-7
SMILES: C[C@@H]1NC(=O)[C@@H]2CSSC[C@H](NC(=O)[C@H](Cc3ccc(C#N)cc3)NC(=O)[C@H](CCCNC(=N)N)NC(=O)[C@@H](Cc3ccccc3)NC(=O)[C@H](Cc3c[nH]cn3)NC1=O)C(=O)N[C@@H](C)C(=O)N[C@@H](CCCCN)C(=O)N[C@@H](CCCCN)C(=O)N[C@@H](CCCCN)C(=O)N[C@@H](Cc1c[nH]c3ccccc13)C(=O)N2
notes: also called c[c[Cys-Ala-His-D-Phe-Arg-4-CN-Phe-Cys]-Ala-Lys-Lys-Lys-Trp]
With B1 the Ki [1] was 0.47 nM, the “MC1R cAMP EC50” value [2] was 10.8 nM and the “MC4R cAMP EC50” value [3] was 0.42 nM.

B2: Chem. 7 (peptide)
peptide: cyclo(AAH[dF]RWAAH[dF]RW)
SMILES: C[C@@H]1NC(=O)[C@H](C)NC(=O)[C@H](Cc2c[nH]c3ccccc23)NC(=O)[C@H](CCCNC(=N)N)NC(=O)[C@@H](Cc2ccccc2)NC(=O)[C@H](Cc2c[nH]cn2)NC(=O)[C@H](C)NC(=O)[C@H](C)NC(=O)[C@H](Cc2c[nH]c3ccccc23)NC(=O)[C@H](CCCNC(=N)N)NC(=O)[C@@H](Cc2ccccc2)NC(=O)[C@H](Cc2c[nH]cn2)NC1=O
notes: also called c[Ala-Ala-His-D-Phe-Arg-Trp-Ala-Ala-His-D-Phe-Arg-Trp]
For B2, the Ki [1] was 0.47 nM, the “MC1R cAMP EC50” value [2] was 4.56 nM and the “MC4R cAMP EC50” value [3] was 0.06 nM.

B3: Chem. 66 (peptide)
peptide: cyclo(CAH[dF]R[Phe(3,4-Cl2)]CAKKKW)
modifications: disulfide 1-7
SMILES: C[C@@H]1NC(=O)[C@@H]2CSSC[C@H](NC(=O)[C@H](Cc3ccc(Cl)c(Cl)c3)NC(=O)[C@H](CCCNC(=N)N)NC(=O)[C@@H](Cc3ccccc3)NC(=O)[C@H](Cc3c[nH]cn3)NC1=O)C(=O)N[C@@H](C)C(=O)N[C@@H](CCCCN)C(=O)N[C@@H](CCCCN)C(=O)N[C@@H](CCCCN)C(=O)N[C@@H](Cc1c[nH]c3ccccc13)C(=O)N2
notes: also called c[c[Cys-Ala-His-D-Phe-Arg-3,4-DiCl-Phe-Cys]-Ala-Lys-Lys-Lys-Trp]
In the case of B3, the Ki [1] is reported as 0.03 nM, the “MC1R cAMP EC50” value [2] is reported as 0.22 nM and the “MC4R cAMP EC50” value [3] is reported as 0.01 nM.

B4: Chem. 67 (peptide)
peptide: cyclo(CAH[dF]R[Phe(3,4-(OMe)2)]CAKKKW)
modifications: disulfide 1-7
SMILES: COc1ccc(C[C@@H]2NC(=O)[C@H](CCCNC(=N)N)NC(=O)[C@@H](Cc3ccccc3)NC(=O)[C@H](Cc3c[nH]cn3)NC(=O)[C@H](C)NC(=O)[C@@H]3CSSC[C@H](NC2=O)C(=O)N[C@@H](C)C(=O)N[C@@H](CCCCN)C(=O)N[C@@H](CCCCN)C(=O)N[C@@H](CCCCN)C(=O)N[C@@H](Cc2c[nH]c4ccccc24)C(=O)N3)cc1OC
notes: also called c[c[Cys-Ala-His-D-Phe-Arg-3,4-DiMeo-Phe-Cys]-Ala-Lys-Lys-Lys-Trp]
B4 was tested, and the Ki [1] was 0.95 nM, the “MC1R cAMP EC50” value [2] was over 55 nM and the “MC4R cAMP EC50” value [3] was 2.99 nM.

B5: Chem. 68 (peptide)
peptide: cyclo(CH[dF]RWRCH[dF]RWR)
modifications: disulfide 1-7
SMILES: N=C(N)NCCC[C@@H]1NC(=O)[C@H](Cc2c[nH]c3ccccc23)NC(=O)[C@H](CCCNC(=N)N)NC(=O)[C@@H](Cc2ccccc2)NC(=O)[C@H](Cc2c[nH]cn2)NC(=O)[C@@H]2CSSC[C@H](NC1=O)C(=O)N[C@@H](Cc1c[nH]cn1)C(=O)N[C@H](Cc1ccccc1)C(=O)N[C@@H](CCCNC(=N)N)C(=O)N[C@@H](Cc1c[nH]c3ccccc13)C(=O)N[C@@H](CCCNC(=N)N)C(=O)N2
notes: also called c[c[Cys-His-D-Phe-Arg-Trp-Arg-Cys]-His-D-Phe-Arg-Trp-Arg]
In the case of B5, the Ki [1] is reported as 10.4 nM, the “MC1R cAMP EC50” value [2] is reported as 4.87 nM and the “MC4R cAMP EC50” value [3] is reported as 4.35 nM.

B6: Chem. 69 (peptide)
peptide: cyclo(CAH[dF]RWRCAH[dF]RWR)
modifications: disulfide 1-8
SMILES: C[C@@H]1NC(=O)[C@@H]2CSSC[C@H](NC(=O)[C@H](CCCNC(=N)N)NC(=O)[C@H](Cc3c[nH]c4ccccc34)NC(=O)[C@H](CCCNC(=N)N)NC(=O)[C@@H](Cc3ccccc3)NC(=O)[C@H](Cc3c[nH]cn3)NC1=O)C(=O)N[C@@H](C)C(=O)N[C@@H](Cc1c[nH]cn1)C(=O)N[C@H](Cc1ccccc1)C(=O)N[C@@H](CCCNC(=N)N)C(=O)N[C@@H](Cc1c[nH]c3ccccc13)C(=O)N[C@@H](CCCNC(=N)N)C(=O)N2
notes: also called c[c[Cys-Ala-His-D-Phe-Arg-Trp-Arg-Cys]-Ala-His-D-Phe-Arg-Trp-Arg]
B6 was tested, and the Ki [1] was 4.65 nM, the “MC1R cAMP EC50” value [2] was 6.9 nM and the “MC4R cAMP EC50” value [3] was 1.52 nM.
